Test results published in patent US20140072613A1, “Compositions and Methods for Treating Cutaneous Scarring” (priority 2012, published 2014).

What was measured:
[1] = target: FGFR2 (h) (Homo sapiens, UniProt P21802); assay: biochemical; conditions: FGFR2(h); 100 μM
Source text: (§1) Specifically, in these assays, a positively charged substrate is phosphorylated with a radiolabeled phosphate group from an ATP if the kinase is not inhibited by an inhibitor peptide. The positively charged substrate then is attracted to a negatively charged filter membrane, quantified with a scintillation counter, and compared to a 100% activity control.

[2] = target: Fes(h) (Homo sapiens, UniProt P07332); assay: biochemical; conditions: 100 μM
Chain of Fes(h) (P07332 whole entry): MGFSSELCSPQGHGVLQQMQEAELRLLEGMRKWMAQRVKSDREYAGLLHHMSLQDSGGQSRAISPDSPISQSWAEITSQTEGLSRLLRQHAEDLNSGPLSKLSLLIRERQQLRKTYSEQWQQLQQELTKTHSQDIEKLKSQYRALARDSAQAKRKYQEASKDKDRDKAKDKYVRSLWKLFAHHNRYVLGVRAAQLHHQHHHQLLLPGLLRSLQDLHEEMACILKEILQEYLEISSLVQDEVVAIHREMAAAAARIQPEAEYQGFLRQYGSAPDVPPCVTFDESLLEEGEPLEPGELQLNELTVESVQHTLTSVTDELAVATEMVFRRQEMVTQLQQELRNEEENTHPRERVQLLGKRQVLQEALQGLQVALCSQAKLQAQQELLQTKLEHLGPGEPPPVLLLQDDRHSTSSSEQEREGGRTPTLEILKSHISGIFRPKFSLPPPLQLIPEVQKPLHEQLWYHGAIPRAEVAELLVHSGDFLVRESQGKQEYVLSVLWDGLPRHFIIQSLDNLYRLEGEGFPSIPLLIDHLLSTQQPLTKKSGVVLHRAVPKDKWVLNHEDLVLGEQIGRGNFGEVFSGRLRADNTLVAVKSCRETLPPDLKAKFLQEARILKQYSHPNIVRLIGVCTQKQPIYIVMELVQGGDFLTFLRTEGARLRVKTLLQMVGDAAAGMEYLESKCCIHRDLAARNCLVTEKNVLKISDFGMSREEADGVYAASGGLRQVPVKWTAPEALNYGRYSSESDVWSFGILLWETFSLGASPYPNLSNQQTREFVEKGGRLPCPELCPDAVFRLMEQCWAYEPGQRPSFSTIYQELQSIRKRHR
Source text: as §1

[3] = target: MSK1 (h) (Homo sapiens, UniProt O75582); assay: biochemical; conditions: MSK1(h); 100 μM
Source text: as §1

[4] = target: Pim-1 (h) (Homo sapiens, UniProt P11309); assay: biochemical; conditions: Pim-1(h); 100 μM
Chain of Pim-1 (h) (P11309 whole entry): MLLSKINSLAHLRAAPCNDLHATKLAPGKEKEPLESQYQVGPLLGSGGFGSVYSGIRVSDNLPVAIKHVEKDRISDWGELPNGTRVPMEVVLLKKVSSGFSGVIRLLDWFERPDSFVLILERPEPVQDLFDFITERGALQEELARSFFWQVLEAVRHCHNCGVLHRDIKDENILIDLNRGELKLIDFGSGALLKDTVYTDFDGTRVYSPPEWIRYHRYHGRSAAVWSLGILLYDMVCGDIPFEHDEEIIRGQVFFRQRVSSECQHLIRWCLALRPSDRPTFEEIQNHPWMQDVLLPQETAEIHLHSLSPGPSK
Source text: as §1

[5] = target: CaMK1δ (h) (Homo sapiens, UniProt Q8IU85); assay: biochemical; conditions: CaMKIδ(h); 100 μM
Chain of CaMK1δ (h) (Q8IU85 whole entry): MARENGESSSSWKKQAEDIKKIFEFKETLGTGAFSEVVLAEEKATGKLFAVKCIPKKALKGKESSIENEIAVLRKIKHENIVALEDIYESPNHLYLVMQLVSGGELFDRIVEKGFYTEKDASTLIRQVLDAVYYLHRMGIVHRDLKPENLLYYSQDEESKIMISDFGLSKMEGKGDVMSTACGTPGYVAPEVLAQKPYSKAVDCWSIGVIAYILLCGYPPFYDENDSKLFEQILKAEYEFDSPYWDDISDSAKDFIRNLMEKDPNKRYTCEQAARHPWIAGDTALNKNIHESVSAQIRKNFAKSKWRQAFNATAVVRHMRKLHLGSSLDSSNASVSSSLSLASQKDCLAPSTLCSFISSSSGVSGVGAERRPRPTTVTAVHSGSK
Source text: as §1

[6] = target: CaMKI (h) (Homo sapiens, UniProt Q14012); assay: biochemical; conditions: CaMKI(h); 100 μM
Chain of CaMKI (h) (Q14012 whole entry): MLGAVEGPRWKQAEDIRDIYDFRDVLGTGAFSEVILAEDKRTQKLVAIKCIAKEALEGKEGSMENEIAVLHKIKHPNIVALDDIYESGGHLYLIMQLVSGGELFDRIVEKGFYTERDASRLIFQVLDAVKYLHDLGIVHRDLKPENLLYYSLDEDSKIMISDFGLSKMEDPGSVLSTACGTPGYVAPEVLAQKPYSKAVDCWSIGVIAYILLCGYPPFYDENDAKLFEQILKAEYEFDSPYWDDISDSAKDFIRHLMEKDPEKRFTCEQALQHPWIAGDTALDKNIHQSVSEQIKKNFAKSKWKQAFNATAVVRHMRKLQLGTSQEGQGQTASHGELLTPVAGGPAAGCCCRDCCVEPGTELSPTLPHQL
Source text: as §1

[7] = target: T1, DMPK (h) (Homo sapiens, UniProt Q09013); assay: Millipore radiometric kinase assay (IC50 Profiler Express); format: biochemical; conditions: DMPK(h); 100 μM
T1 sequence (Q09013 1-629): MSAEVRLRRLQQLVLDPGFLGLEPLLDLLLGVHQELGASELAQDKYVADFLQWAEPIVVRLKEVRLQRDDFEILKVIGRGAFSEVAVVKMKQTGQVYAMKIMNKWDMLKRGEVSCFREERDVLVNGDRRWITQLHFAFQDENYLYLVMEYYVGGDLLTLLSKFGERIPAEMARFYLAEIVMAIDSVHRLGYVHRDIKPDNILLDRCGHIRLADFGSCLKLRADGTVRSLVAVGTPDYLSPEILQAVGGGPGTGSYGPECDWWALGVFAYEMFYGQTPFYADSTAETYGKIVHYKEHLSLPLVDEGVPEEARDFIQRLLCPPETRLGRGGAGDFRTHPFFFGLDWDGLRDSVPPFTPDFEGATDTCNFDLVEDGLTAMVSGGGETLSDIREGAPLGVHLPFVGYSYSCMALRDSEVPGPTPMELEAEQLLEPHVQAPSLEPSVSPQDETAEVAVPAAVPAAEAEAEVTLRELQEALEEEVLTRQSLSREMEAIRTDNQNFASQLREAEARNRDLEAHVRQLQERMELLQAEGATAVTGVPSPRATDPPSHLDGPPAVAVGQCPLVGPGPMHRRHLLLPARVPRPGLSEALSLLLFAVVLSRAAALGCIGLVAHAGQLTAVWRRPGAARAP
Source text: as §1

[8] = target: EGFR (L861Q) (h) (Homo sapiens, UniProt P00533, L861Q); assay: as above; format: biochemical; conditions: EGFR(L861Q)(h); 100 μM
Source text: as §1

[9] = target: T2, DRAK1 (h) (Homo sapiens, UniProt Q9UEE5); assay: as above; format: biochemical; conditions: DRAK1(h); 100 μM
T2 sequence (Q9UEE5 1-414): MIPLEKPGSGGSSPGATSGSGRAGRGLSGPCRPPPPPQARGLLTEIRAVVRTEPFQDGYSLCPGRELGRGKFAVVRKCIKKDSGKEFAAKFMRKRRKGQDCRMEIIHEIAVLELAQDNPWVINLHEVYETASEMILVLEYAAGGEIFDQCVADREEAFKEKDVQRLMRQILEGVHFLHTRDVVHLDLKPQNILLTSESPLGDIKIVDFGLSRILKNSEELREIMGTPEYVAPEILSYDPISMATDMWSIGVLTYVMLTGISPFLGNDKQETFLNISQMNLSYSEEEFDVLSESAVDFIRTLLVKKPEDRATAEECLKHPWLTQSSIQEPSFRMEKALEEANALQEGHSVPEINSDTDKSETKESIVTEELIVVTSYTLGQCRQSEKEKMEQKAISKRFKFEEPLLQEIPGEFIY
Source text: as §1

[10] = target: LOK (h) (Homo sapiens, UniProt O94804); assay: as above; format: biochemical; conditions: LOK(h); 100 μM
Source text: as §1

[11] = target: 266 human kinases (Homo sapiens, UniProt Q13554); assay: biochemical; format: biochemical; conditions: CaMKIIβ(h); 100 μM
Chain of 266 human kinases (Homo sapiens, UniProt Q13554) (Q13554 whole entry): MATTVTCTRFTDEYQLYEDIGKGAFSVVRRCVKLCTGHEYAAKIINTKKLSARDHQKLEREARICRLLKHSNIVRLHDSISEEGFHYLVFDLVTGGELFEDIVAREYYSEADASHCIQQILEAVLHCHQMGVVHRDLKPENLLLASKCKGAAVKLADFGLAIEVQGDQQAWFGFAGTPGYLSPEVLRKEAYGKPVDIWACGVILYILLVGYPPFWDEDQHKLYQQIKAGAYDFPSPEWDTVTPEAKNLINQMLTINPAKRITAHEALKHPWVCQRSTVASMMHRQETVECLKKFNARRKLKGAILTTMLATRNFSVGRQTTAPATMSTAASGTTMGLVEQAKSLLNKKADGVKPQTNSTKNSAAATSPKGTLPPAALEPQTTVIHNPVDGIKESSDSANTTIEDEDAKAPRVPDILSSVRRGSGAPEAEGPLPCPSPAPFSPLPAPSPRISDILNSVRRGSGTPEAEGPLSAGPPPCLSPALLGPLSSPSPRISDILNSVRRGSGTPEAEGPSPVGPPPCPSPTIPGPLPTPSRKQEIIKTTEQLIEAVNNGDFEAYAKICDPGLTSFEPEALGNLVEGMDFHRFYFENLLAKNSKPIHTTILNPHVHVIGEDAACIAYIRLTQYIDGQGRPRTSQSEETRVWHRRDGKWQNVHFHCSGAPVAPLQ
Source text: as §1

[12] = target: 266 human kinases (Homo sapiens, UniProt Q13557); assay: biochemical; format: biochemical; conditions: CaMKIIδ(h); 100 μM
Chain of 266 human kinases (Homo sapiens, UniProt Q13557) (Q13557 whole entry): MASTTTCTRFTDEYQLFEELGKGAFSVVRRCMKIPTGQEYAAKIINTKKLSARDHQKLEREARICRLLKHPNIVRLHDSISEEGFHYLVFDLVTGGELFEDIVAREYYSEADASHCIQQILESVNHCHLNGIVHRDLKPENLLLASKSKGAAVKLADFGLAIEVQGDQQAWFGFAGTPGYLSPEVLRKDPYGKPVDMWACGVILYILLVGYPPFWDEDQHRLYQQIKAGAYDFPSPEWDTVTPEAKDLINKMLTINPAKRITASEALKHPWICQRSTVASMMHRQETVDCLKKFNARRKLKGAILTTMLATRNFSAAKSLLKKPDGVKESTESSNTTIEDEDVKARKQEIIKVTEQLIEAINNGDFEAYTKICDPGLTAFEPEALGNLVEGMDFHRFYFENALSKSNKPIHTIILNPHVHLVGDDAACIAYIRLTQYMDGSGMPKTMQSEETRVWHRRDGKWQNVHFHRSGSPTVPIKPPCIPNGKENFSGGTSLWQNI
Source text: as §1

[13] = target: T3, 266 human kinases (Homo sapiens, UniProt Q96BR1); assay: biochemical; format: biochemical; conditions: SGK3(h); 100 μM
T3 sequence (Q96BR1 1-496): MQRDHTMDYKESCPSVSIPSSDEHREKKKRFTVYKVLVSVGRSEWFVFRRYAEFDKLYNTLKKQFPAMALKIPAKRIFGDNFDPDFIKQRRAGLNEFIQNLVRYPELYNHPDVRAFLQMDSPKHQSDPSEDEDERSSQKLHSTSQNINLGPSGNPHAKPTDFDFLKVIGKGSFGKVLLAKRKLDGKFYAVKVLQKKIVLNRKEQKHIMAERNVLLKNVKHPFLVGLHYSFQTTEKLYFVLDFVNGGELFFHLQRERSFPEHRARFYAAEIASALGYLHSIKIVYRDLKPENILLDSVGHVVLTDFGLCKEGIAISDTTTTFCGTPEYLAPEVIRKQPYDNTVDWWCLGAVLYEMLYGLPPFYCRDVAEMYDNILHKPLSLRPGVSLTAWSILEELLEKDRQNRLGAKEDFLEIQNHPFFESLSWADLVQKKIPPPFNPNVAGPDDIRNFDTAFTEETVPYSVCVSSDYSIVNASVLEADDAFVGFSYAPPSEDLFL
Source text: as §1

[14] = target: 266 human kinases (Homo sapiens, UniProt P16591); assay: biochemical; format: biochemical; conditions: Fer(h); 100 μM
Source text: as §1

[15] = target: 266 human kinases (Homo sapiens, UniProt P49841); assay: biochemical; format: biochemical; conditions: 6SK3β(h); 100 μM
Chain of 266 human kinases (Homo sapiens, UniProt P49841) (P49841 whole entry): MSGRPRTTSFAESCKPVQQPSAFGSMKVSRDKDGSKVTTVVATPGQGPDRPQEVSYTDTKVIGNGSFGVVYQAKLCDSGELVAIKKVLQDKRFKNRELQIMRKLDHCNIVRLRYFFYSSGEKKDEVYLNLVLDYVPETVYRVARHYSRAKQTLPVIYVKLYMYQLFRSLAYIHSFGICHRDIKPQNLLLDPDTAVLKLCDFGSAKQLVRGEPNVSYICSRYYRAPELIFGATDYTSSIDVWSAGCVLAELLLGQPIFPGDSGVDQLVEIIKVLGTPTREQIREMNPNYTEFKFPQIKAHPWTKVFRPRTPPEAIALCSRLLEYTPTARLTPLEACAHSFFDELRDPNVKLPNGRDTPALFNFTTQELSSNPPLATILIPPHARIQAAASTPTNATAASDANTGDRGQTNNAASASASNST
Source text: as §1

[16] = target: 266 human kinases (Homo sapiens, UniProt Q16513); assay: biochemical; format: biochemical; conditions: PRK2(h); 100 μM
Chain of 266 human kinases (Homo sapiens, UniProt Q16513) (Q16513 whole entry): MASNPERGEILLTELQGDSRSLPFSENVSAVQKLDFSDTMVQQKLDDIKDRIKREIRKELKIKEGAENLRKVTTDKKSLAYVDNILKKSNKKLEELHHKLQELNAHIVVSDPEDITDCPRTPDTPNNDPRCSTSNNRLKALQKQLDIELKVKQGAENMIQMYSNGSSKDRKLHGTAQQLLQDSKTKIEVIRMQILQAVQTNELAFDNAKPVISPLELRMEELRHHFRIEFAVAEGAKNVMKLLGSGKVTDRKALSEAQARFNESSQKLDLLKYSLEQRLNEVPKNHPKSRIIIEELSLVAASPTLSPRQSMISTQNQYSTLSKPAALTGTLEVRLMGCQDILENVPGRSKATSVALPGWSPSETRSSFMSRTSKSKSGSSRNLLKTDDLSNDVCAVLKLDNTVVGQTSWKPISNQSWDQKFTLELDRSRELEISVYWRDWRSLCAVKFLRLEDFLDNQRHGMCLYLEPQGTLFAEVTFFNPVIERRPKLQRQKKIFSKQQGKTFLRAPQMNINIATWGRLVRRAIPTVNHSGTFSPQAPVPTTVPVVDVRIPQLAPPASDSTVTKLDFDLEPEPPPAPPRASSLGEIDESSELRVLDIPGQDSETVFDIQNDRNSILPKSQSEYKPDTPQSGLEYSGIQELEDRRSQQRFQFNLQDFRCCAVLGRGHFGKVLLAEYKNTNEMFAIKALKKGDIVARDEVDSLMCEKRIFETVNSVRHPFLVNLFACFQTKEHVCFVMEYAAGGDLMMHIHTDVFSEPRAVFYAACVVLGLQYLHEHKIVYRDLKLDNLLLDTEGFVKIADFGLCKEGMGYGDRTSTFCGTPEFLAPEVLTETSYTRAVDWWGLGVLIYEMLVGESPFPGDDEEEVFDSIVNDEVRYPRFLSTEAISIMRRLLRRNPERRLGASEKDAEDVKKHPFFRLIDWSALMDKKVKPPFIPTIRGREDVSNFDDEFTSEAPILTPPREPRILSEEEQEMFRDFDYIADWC
Source text: as §1

[17] = target: 266 human kinases (Homo sapiens, UniProt Q00534); assay: biochemical; format: biochemical; conditions: CDK6/cyclinD3(h); 100 μM
Chain of 266 human kinases (Homo sapiens, UniProt Q00534) (Q00534 whole entry): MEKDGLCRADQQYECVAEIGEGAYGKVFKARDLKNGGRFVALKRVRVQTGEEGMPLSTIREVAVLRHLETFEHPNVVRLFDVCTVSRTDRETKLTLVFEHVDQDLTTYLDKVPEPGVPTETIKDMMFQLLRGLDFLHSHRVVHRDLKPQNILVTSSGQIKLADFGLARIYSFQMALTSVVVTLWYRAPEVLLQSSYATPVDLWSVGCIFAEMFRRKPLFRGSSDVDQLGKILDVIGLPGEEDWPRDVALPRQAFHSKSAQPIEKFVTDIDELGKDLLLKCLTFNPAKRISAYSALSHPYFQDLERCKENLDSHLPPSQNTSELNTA
Source text: as §1

Sequence | % activity [1] [%] | % activity [2] [%] | % activity [3] [%] | % activity [4] [%] | % activity [5] [%] | % activity [6] [%] | % activity [7] [%] | % activity [8] [%] | % activity [9] [%] | % activity [10] [%] | % activity [11] [%] | % activity [12] [%] | % activity [13] [%] | % activity [14] [%] | % activity [15] [%] | % activity [16] [%] | % activity [17] [%]
HRRIKAWLKKIKALARQLGVAA (mammal) [MMI-0500] | 12 | 23 | 8 | 0 | 0 | −1 | 12 | 15 | 8 | 7 | 3 | 1 | −3 | 196 | 238 | 7 | 23
YARAAARQARAKALNRQLGVA (mammal) [MMI-0200] | 73 | 74 | 50 | 18 | 47 | 21 | 66 | 74 | 34 | 67 | 53 | 2 | 58 | 101 | 132 | 74 | 100
